Data on 9 proteins can be found in publication PMC13462943, “De novo EHMT2 variants cause an autosomal dominant EHMT2-related Kleefstra syndrome via loss of G9a methyltransferase activity” (Nature Communications, 2026).

Sequences and labels used below:
B1: GLP methyltransferase domain (aa 1001-1266), wild type (domain or fragment, human, UniProt Q9H9B1-1 1001-1266, looked up)
chain: DRPSPVERIVSRDIARGYERIPIPCVNAVDSEPCPSNYKYVSQNCVTSPMNIDRNITHLQYCVCIDDCSSSNCMCGQLSMRCWYDKDGRLLPEFNMAEPPLIFECNHACSCWRNCRNRVVQNGLRARLQLYRTRDMGWGVRSLQDIPPGTFVCEYVGELISDSEADVREEDSYLFDLDNKDGEVYCIDARFYGNVSRFINHHCEPNLVPVRVFMAHQDLRFPRIAFFSTRLIEAGEQLGFDYGERFWDIKGKLFSCRCGSPKCRHS
notes: GLP (EHMT1), human, methyltransferase (SET) domain, aa 1001-1266; NM_024757.5 is printed for the EHMT1 variant of the Kleefstra syndrome 1 patient, not expressly for this construct; also called EHMT1; euchromatin histone lysine methyltransferase 1; source: E. coli BL21-CodonPlus (DE3)-RIPL, pET28a, purified (IMAC, TEV cleavage, SEC, second IMAC); not shown: His6, N-terminal, cleaved
B2: G9a methyltransferase domain (aa residues 913-1193), Del 1076-9 (domain or fragment, human, UniProt Q96KQ7-1 913-1193, looked up)
chain: NRAIRTEKIICRDVARGYENVPIPCVNGVDGEPCPEDYKYISENCETSTMNIDRNITHLQHCTCVDDCSSSNCLCGQLSIRCWYDKDGRLLQEFNKIEPPLIFECNQACSCWRNCKNRVVQSGIKVRLQLYRTAKMGWGVRALQTIPQGTFICEYVGELISDAREDDSYLFDLDNKDGEVYCIDARYYGNISRFINHLCDPNIIPVRVFMLHQDLRFPRIAFFSSRDIRTGEELGFDYGDRFWDIKSKYFTCQCGSEKCKHSAEAIALEQSRLARLD
notes: G9a (EHMT2), human, methyltransferase (SET) domain, aa residues 913-1193, patient variant; numbered on NP_006700.3; also called p.Glu1076_Val1079del; c.3225_3236del; source: E. coli BL21-CodonPlus (DE3)-RIPL, pET28a, purified (IMAC, TEV cleavage, SEC, second IMAC); not shown: His6, N-terminal, cleaved
B3: G9a methyltransferase domain (aa residues 913-1193), K1162R (domain or fragment, human, UniProt Q96KQ7-1 913-1193, looked up)
chain: NRAIRTEKIICRDVARGYENVPIPCVNGVDGEPCPEDYKYISENCETSTMNIDRNITHLQHCTCVDDCSSSNCLCGQLSIRCWYDKDGRLLQEFNKIEPPLIFECNQACSCWRNCKNRVVQSGIKVRLQLYRTAKMGWGVRALQTIPQGTFICEYVGELISDAEADVREDDSYLFDLDNKDGEVYCIDARYYGNISRFINHLCDPNIIPVRVFMLHQDLRFPRIAFFSSRDIRTGEELGFDYGDRFWDIRSKYFTCQCGSEKCKHSAEAIALEQSRLARLD
notes: G9a (EHMT2), human, methyltransferase (SET) domain, aa residues 913-1193, patient variant; numbered on NP_006700.3; De novo patient variant made by site-directed mutagenesis; also called p.Lys1162Arg; c.3485A>G; source: E. coli BL21-CodonPlus (DE3)-RIPL, pET28a, purified (IMAC, TEV cleavage, SEC, second IMAC); not shown: His6, N-terminal, cleaved
B4: G9a methyltransferase domain (aa residues 913-1193), A1077S (domain or fragment, human, UniProt Q96KQ7-1 913-1193, looked up)
chain: NRAIRTEKIICRDVARGYENVPIPCVNGVDGEPCPEDYKYISENCETSTMNIDRNITHLQHCTCVDDCSSSNCLCGQLSIRCWYDKDGRLLQEFNKIEPPLIFECNQACSCWRNCKNRVVQSGIKVRLQLYRTAKMGWGVRALQTIPQGTFICEYVGELISDAESDVREDDSYLFDLDNKDGEVYCIDARYYGNISRFINHLCDPNIIPVRVFMLHQDLRFPRIAFFSSRDIRTGEELGFDYGDRFWDIKSKYFTCQCGSEKCKHSAEAIALEQSRLARLD
notes: G9a (EHMT2), human, methyltransferase (SET) domain, aa residues 913-1193, patient variant; numbered on NP_006700.3; De novo patient variant made by site-directed mutagenesis; also called p.Ala1077Ser; c.3229G>T; source: E. coli BL21-CodonPlus (DE3)-RIPL, pET28a, purified (IMAC, TEV cleavage, SEC, second IMAC); not shown: His6, N-terminal, cleaved
B5: G9a methyltransferase domain (aa residues 913-1193), N1112S (domain or fragment, human, UniProt Q96KQ7-1 913-1193, looked up)
chain: NRAIRTEKIICRDVARGYENVPIPCVNGVDGEPCPEDYKYISENCETSTMNIDRNITHLQHCTCVDDCSSSNCLCGQLSIRCWYDKDGRLLQEFNKIEPPLIFECNQACSCWRNCKNRVVQSGIKVRLQLYRTAKMGWGVRALQTIPQGTFICEYVGELISDAEADVREDDSYLFDLDNKDGEVYCIDARYYGNISRFISHLCDPNIIPVRVFMLHQDLRFPRIAFFSSRDIRTGEELGFDYGDRFWDIKSKYFTCQCGSEKCKHSAEAIALEQSRLARLD
notes: G9a (EHMT2), human, methyltransferase (SET) domain, aa residues 913-1193, patient variant; numbered on NP_006700.3; De novo patient variant made by site-directed mutagenesis; also called p.Asn1112Ser; c.3335A>G; source: E. coli BL21-CodonPlus (DE3)-RIPL, pET28a, purified (IMAC, TEV cleavage, SEC, second IMAC); not shown: His6, N-terminal, cleaved
B6: G9a methyltransferase domain (aa residues 913-1193), A1077T (domain or fragment, human, UniProt Q96KQ7-1 913-1193, looked up)
chain: NRAIRTEKIICRDVARGYENVPIPCVNGVDGEPCPEDYKYISENCETSTMNIDRNITHLQHCTCVDDCSSSNCLCGQLSIRCWYDKDGRLLQEFNKIEPPLIFECNQACSCWRNCKNRVVQSGIKVRLQLYRTAKMGWGVRALQTIPQGTFICEYVGELISDAETDVREDDSYLFDLDNKDGEVYCIDARYYGNISRFINHLCDPNIIPVRVFMLHQDLRFPRIAFFSSRDIRTGEELGFDYGDRFWDIKSKYFTCQCGSEKCKHSAEAIALEQSRLARLD
notes: G9a (EHMT2), human, methyltransferase (SET) domain, aa residues 913-1193, patient variant; numbered on NP_006700.3; De novo patient variant made by site-directed mutagenesis; also called p.Ala1077Thr; c.3229G>A; source: E. coli BL21-CodonPlus (DE3)-RIPL, pET28a, purified (IMAC, TEV cleavage, SEC, second IMAC); not shown: His6, N-terminal, cleaved
B7: G9a methyltransferase domain (aa residues 913-1193), F1158L (domain or fragment, human, UniProt Q96KQ7-1 913-1193, looked up)
chain: NRAIRTEKIICRDVARGYENVPIPCVNGVDGEPCPEDYKYISENCETSTMNIDRNITHLQHCTCVDDCSSSNCLCGQLSIRCWYDKDGRLLQEFNKIEPPLIFECNQACSCWRNCKNRVVQSGIKVRLQLYRTAKMGWGVRALQTIPQGTFICEYVGELISDAEADVREDDSYLFDLDNKDGEVYCIDARYYGNISRFINHLCDPNIIPVRVFMLHQDLRFPRIAFFSSRDIRTGEELGFDYGDRLWDIKSKYFTCQCGSEKCKHSAEAIALEQSRLARLD
notes: G9a (EHMT2), human, methyltransferase (SET) domain, aa residues 913-1193, patient variant; numbered on NP_006700.3; De novo patient variant made by site-directed mutagenesis; also called p.Phe1158Leu; c.3472T>C; source: E. coli BL21-CodonPlus (DE3)-RIPL, pET28a, purified (IMAC, TEV cleavage, SEC, second IMAC); not shown: His6, N-terminal, cleaved
B8: G9a methyltransferase domain (aa residues 913-1193), wild type (domain or fragment, human, UniProt Q96KQ7-1 913-1193, looked up)
chain: NRAIRTEKIICRDVARGYENVPIPCVNGVDGEPCPEDYKYISENCETSTMNIDRNITHLQHCTCVDDCSSSNCLCGQLSIRCWYDKDGRLLQEFNKIEPPLIFECNQACSCWRNCKNRVVQSGIKVRLQLYRTAKMGWGVRALQTIPQGTFICEYVGELISDAEADVREDDSYLFDLDNKDGEVYCIDARYYGNISRFINHLCDPNIIPVRVFMLHQDLRFPRIAFFSSRDIRTGEELGFDYGDRFWDIKSKYFTCQCGSEKCKHSAEAIALEQSRLARLD
notes: G9a (EHMT2), human, methyltransferase (SET) domain, aa residues 913-1193; variants numbered on NP_006700.3; His tag removed by TEV protease; also called EHMT2; euchromatin histone lysine methyltransferase 2; source: E. coli BL21-CodonPlus (DE3)-RIPL, pET28a, purified (IMAC, TEV cleavage, SEC, second IMAC); not shown: His6, N-terminal, cleaved
B9: G9a methyltransferase domain (aa residues 913-1193), Del 1163-4 (domain or fragment, human, UniProt Q96KQ7-1 913-1193, looked up)
chain: NRAIRTEKIICRDVARGYENVPIPCVNGVDGEPCPEDYKYISENCETSTMNIDRNITHLQHCTCVDDCSSSNCLCGQLSIRCWYDKDGRLLQEFNKIEPPLIFECNQACSCWRNCKNRVVQSGIKVRLQLYRTAKMGWGVRALQTIPQGTFICEYVGELISDAEADVREDDSYLFDLDNKDGEVYCIDARYYGNISRFINHLCDPNIIPVRVFMLHQDLRFPRIAFFSSRDIRTGEELGFDYGDRFWDIKYFTCQCGSEKCKHSAEAIALEQSRLARLD
notes: G9a (EHMT2), human, methyltransferase (SET) domain, aa residues 913-1193, patient variant; numbered on NP_006700.3; De novo patient variant made by site-directed mutagenesis; also called p.Ser1163_Lys1164del; c.3487_3492del; source: E. coli BL21-CodonPlus (DE3)-RIPL, pET28a, purified (IMAC, TEV cleavage, SEC, second IMAC); not shown: His6, N-terminal, cleaved

The series concerns the molecule itself. Kind of series: native MS; dimerization of apo proteins: 5 µM protein in 150 mM ammonium acetate pH 7.5, 0.5 mM DTT; monomer-dimer distribution quantified.
For orientation: stoichiometry N means a count of units in the complex or per binding partner. In the case of B1, the “stoichiometry N” value is 2.
Under B2 stands 2; under B3, 2; under B4, 2.
On to B5, for which the “stoichiometry N” value was 2.
Under B6 stands 2.
For B7, the “stoichiometry N” value amounted to 2.
For the protein B8, the “stoichiometry N” value worked out at 2.
Take B9: the “stoichiometry N” value came to 2.
